Assay results published in patent US20260209357A1.

Legend:
Assay in all cases: SPR, ligand directly immobilised, soluble Fcγ receptor as analyte, pH 7.3
[1] = target: human FcγRI (CD64) (human) (UniProt P12314)
[2] = target: human FcγRIIIA (CD16a) (human) (UniProt P08637)
[3] = target: human FcγRIIB (CD32B) (human) (UniProt P31994)
Sequence of human FcγRIIB (CD32B) (human) (P31994 43-217): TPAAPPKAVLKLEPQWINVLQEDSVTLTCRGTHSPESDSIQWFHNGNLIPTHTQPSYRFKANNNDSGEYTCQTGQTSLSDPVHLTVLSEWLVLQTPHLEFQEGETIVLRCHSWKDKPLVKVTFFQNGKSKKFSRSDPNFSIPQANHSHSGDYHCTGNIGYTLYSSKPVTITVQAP

Sequence of human FcγRI (CD64) (human) (P12314 16-292): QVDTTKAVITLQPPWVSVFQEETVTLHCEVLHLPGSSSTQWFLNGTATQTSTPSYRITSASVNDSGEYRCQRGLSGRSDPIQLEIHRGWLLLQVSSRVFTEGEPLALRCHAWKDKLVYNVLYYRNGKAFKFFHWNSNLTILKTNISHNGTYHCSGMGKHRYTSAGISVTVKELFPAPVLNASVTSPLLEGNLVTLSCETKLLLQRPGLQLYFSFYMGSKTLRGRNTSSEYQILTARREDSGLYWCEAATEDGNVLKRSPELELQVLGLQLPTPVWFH
Sequence of human FcγRIIIA (CD16a) (human) (P08637 17-208): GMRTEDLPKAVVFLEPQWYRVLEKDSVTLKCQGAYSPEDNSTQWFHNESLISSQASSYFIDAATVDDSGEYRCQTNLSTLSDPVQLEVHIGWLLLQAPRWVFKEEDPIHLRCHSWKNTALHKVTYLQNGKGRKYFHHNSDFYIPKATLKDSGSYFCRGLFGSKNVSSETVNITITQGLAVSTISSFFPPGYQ

- Kd [1]: 0.000345 µM
- Kd [2]: 4.5 µM
- Kd [3]: 5.8 µM
Substance: huIgG1 (antibody)
